Data taken from patent US20260284189A1, “TREATMENT OF NON-SMALL CELL LUNG CANCER” (ASTRAZENECA AB, priority 2023, published 2026).
Values joined by “and” are separate entries in the source; they are usually repeats but may differ in a detail not shown here. Identical values can stand only once.

Assay: AEGEAN phase III: adverse events in the safety analysis set (CTCAE v5.0)
Conditions: for COVID-19: number of patients with event / COVID-19: patients with event: grouped term; for Any immune-mediated event: number of patients / Any immune-mediated event: patients: immune-mediated AE
[1] = all-causality, safety analysis set N = 400
[2] = any cause, Any Grade, safety analysis set N = 400
[3] = any cause, Any Grade, safety analysis set N = 400, listed as durvalumab
[4] = any cause, Max. Grade 3 or 4, safety analysis set N = 400
[5] = immune-mediated AE (grouped term), Any Grade 3 or 4, safety analysis set N = 400
[6] = immune-mediated AE (grouped term), Any Grade, safety analysis set N = 400
[7] = Any Grade 3 or 4, safety analysis set N = 400
[8] = Any Grade, safety analysis set N = 400
[9] = overall study period, safety analysis set N = 400
[10] = overall study period, safety analysis set N = 400, listed as durvalumab
[11] = possibly related to study treatment, Any Grade, safety analysis set N = 400
[12] = possibly related to study treatment, Max. Grade 3 or 4, safety analysis set N = 400

## Durvalumab: antibody that selectively binds PD-L1 and blocks binding of PD-L1 to PD-1 and CD80; arm given with platinum-based chemotherapy before surgery
[1]
  Adverse events leading to cancellation of surgery: number of patients: 7
  Adverse events leading to cancellation of surgery: patients: (1.8) %
  Adverse events leading to discontinuation of durvalumab/placebo: number of patients: 48
  Adverse events leading to discontinuation of durvalumab/placebo: patients: (12.0) %
[2]
  COVID-19: number of patients with event: 44
  COVID-19: patients with event: (11.0) %
  Alopecia: number of patients with event: 68
  Alopecia: patients with event: (17.0) %
  Anemia: number of patients with event: 136
  Anemia: patients with event: (34.0) %
  Asthenia: number of patients with event: 50
  Asthenia: patients with event: (12.5) %
  Constipation: number of patients with event: 99
  Constipation: patients with event: (24.8) %
  Decreased appetite: number of patients with event: 73
  Decreased appetite: patients with event: (18.3) %
  Diarrhea: number of patients with event: 52
  Diarrhea: patients with event: (13.0) %
  Fatigue: number of patients with event: 52
  Fatigue: patients with event: (13.0) %
  Insomnia: number of patients with event: 41
  Insomnia: patients with event: (10.3) %
  Nausea: number of patients with event: 101
  Nausea: patients with event: (25.3) %
  Neutropenia: number of patients with event: 68
  Neutropenia: patients with event: (17.0) %
  Neutrophil count decreased: number of patients with event: 64
  Neutrophil count decreased: patients with event: (16.0) %
  Procedural pain: number of patients with event: 44
  Procedural pain: patients with event: (11.0) %
  Pruritis: number of patients with event: 47
  Pruritis: patients with event: (11.8) %
  Rash: number of patients with event: 56
  Rash: patients with event: (14.0) %
  Vomiting: number of patients with event: 45
  Vomiting: patients with event: (11.3) %
[3]
  Pruritis: patients with event: 11.8%
  Rash: patients with event: 14%
[4]
  COVID-19: number of patients with event: 1
  COVID-19: patients with event: (0.3) %
  Alopecia: number of patients with event: 0
  Anemia: number of patients with event: 26
  Anemia: patients with event: (6.5) %
  Asthenia: number of patients with event: 0
  Constipation: number of patients with event: 1
  Constipation: patients with event: (0.3) %
  Decreased appetite: number of patients with event: 1
  Decreased appetite: patients with event: (0.3) %
  Diarrhea: number of patients with event: 3
  Diarrhea: patients with event: (0.8) %
  Fatigue: number of patients with event: 0
  Insomnia: number of patients with event: 0
  Nausea: number of patients with event: 1
  Nausea: patients with event: (0.3) %
  Neutropenia: number of patients with event: 36
  Neutropenia: patients with event: (9.0) %
  Neutrophil count decreased: number of patients with event: 39
  Neutrophil count decreased: patients with event: (9.8) %
  Procedural pain: number of patients with event: 1
  Procedural pain: patients with event: (0.3) %
  Pruritis: number of patients with event: 1
  Pruritis: patients with event: (0.3) %
  Rash: number of patients with event: 2
  Rash: patients with event: (0.5) %
  Vomiting: number of patients with event: 3
  Vomiting: patients with event: (0.8) %
Any cause, assessed as unrelated to study treatment, safety analysis set, listed as D
  COVID-19 events of max. grade 5: number of patients: 5
Any cause, safety analysis set, listed as D
  Decreased appetite with an outcome of death (max. grade 5): number of patients: 1
[5]
  Dermatitis/Rash: number of patients: 2
  Dermatitis/Rash: patients: (0.5) %
  Diarrhea/Colitis: number of patients: 0
  Hepatic events: number of patients: 8
  Hepatic events: patients: (2.0) %
  Hyperthyroid events: number of patients: 0
  Hypothyroid events: number of patients: 0
  Pneumonitis: number of patients: 5
  Pneumonitis: patients: (1.2) %
[6]
  Dermatitis/Rash: number of patients: 22
  Dermatitis/Rash: patients: (5.5) %
  Diarrhea/Colitis: number of patients: 3
  Diarrhea/Colitis: patients: (0.7) %
  Hepatic events: number of patients: 13
  Hepatic events: patients: (3.2) %
  Hyperthyroid events: number of patients: 7
  Hyperthyroid events: patients: (1.7) %
  Hypothyroid events: number of patients: 37
  Hypothyroid events: patients: (9.2) %
  Pneumonitis: number of patients: 15
  Pneumonitis: patients: (3.7) %
immune-mediated AE (grouped term), Any Grade, safety analysis set N = 400, listed as durvalumab
  Pneumonitis: patients: 3.7%
[7]
  Any immune-mediated event: number of patients: 17
  Any immune-mediated event: patients: (4.2) %
Any Grade 3 or 4, safety analysis set N = 400, listed as durvalumab
  Any immune-mediated event: patients: 4.2%
[8]
  Any immune-mediated event: number of patients: 95
  Any immune-mediated event: patients: (23.7) %
Any Grade, safety analysis set N = 400, listed as durvalumab
  Any immune-mediated event: patients: 23.7% and 23.5%
[9]
  All-causality adverse events with outcome of death: number of patients: 23
  All-causality adverse events with outcome of death: patients: (5.8) %
  All-causality adverse events, maximum grade 3 or 4: number of patients: 169
  All-causality adverse events, maximum grade 3 or 4: patients: (42.3) %
  All-causality serious adverse events: number of patients: 150
  All-causality serious adverse events: patients: (37.5) %
  Any-grade adverse events possibly related to durvalumab/placebo/chemotherapy: number of patients: 346
  Any-grade adverse events possibly related to durvalumab/placebo/chemotherapy: patients: (86.5) %
  Any-grade all-causality adverse events: number of patients: 386
  Any-grade all-causality adverse events: patients: (96.5) %
  Possibly related adverse events with outcome of death: number of patients: 7
  Possibly related adverse events with outcome of death: patients: (1.8) %
  Possibly related adverse events, maximum grade 3 or 4: number of patients: 129
  Possibly related adverse events, maximum grade 3 or 4: patients: (32.3) %
[10]
  All-causality adverse events, maximum grade 3 or 4: patients: 42.3%
  Any-grade adverse events possibly related to durvalumab/placebo/chemotherapy: patients: 86.5%
  Any-grade all-causality adverse events: patients: 96.5%
  Possibly related adverse events with outcome of death: patients: 1.8%
  Possibly related adverse events, maximum grade 3 or 4: patients: 32.3%
[11]
  Alanine aminotransferase increased: number of patients with event: 30
  Alanine aminotransferase increased: patients with event: (7.5) %
  Alopecia: number of patients with event: 66
  Alopecia: patients with event: (16.5) %
  Anemia: number of patients with event: 104
  Anemia: patients with event: (26.0) %
  Arthralgia: number of patients with event: 21
  Arthralgia: patients with event: (5.3) %
  Asthenia: number of patients with event: 34
  Asthenia: patients with event: (8.5) %
  Constipation: number of patients with event: 44
  Constipation: patients with event: (11.0) %
  Decreased appetite: number of patients with event: 49
  Decreased appetite: patients with event: (12.3) %
  Diarrhea: number of patients with event: 34
  Diarrhea: patients with event: (8.5) %
  Fatigue: number of patients with event: 42
  Fatigue: patients with event: (10.5) %
  Hypothyroidism: number of patients with event: 37
  Hypothyroidism: patients with event: (9.3) %
  Leukopenia: number of patients with event: 33
  Leukopenia: patients with event: (8.3) %
  Nausea: number of patients with event: 84
  Nausea: patients with event: (21.0) %
  Neutropenia: number of patients with event: 60
  Neutropenia: patients with event: (15.0) %
  Neutrophil count decreased: number of patients with event: 61
  Neutrophil count decreased: patients with event: (15.3) %
  Platelet count decreased: number of patients with event: 29
  Platelet count decreased: patients with event: (7.3) %
  Pruritis: number of patients with event: 33
  Pruritis: patients with event: (8.3) %
  Rash: number of patients with event: 37
  Rash: patients with event: (9.3) %
  Thrombocytopenia: number of patients with event: 24
  Thrombocytopenia: patients with event: (6.0) %
  Vomiting: number of patients with event: 31
  Vomiting: patients with event: (7.8) %
  White blood cell count decreased: number of patients with event: 25
  White blood cell count decreased: patients with event: (6.3) %
[12]
  Alanine aminotransferase increased: number of patients with event: 2
  Alanine aminotransferase increased: patients with event: (0.5) %
  Alopecia: number of patients with event: 0
  Anemia: number of patients with event: 17
  Anemia: patients with event: (4.3) %
  Arthralgia: number of patients with event: 1
  Arthralgia: patients with event: (0.3) %
  Asthenia: number of patients with event: 0
  Constipation: number of patients with event: 0
  Decreased appetite: number of patients with event: 0
  Diarrhea: number of patients with event: 3
  Diarrhea: patients with event: (0.8) %
  Fatigue: number of patients with event: 0
  Hypothyroidism: number of patients with event: 0
  Leukopenia: number of patients with event: 9
  Leukopenia: patients with event: (2.3) %
  Nausea: number of patients with event: 1
  Nausea: patients with event: (0.3) %
  Neutropenia: number of patients with event: 36
  Neutropenia: patients with event: (9.0) %
  Neutrophil count decreased: number of patients with event: 38
  Neutrophil count decreased: patients with event: (9.5) %
  Platelet count decreased: number of patients with event: 7
  Platelet count decreased: patients with event: (1.8) %
  Pruritis: number of patients with event: 1
  Pruritis: patients with event: (0.3) %
  Rash: number of patients with event: 2
  Rash: patients with event: (0.5) %
  Thrombocytopenia: number of patients with event: 6
  Thrombocytopenia: patients with event: (1.5) %
  Vomiting: number of patients with event: 3
  Vomiting: patients with event: (0.8) %
  White blood cell count decreased: number of patients with event: 8
  White blood cell count decreased: patients with event: (2.0) %
